According to PMC2172719 (The Journal of Cell Biology, 2003):

Assays:
His-Ubc13 = target: T1, His-Ubc13 (yeast, UniProt P52490 1-153); test: SEC
T1 sequence: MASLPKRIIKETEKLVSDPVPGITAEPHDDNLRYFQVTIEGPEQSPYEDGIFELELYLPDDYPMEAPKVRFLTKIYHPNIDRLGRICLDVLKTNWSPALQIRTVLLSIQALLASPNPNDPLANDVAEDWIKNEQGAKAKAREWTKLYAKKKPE

SEC = target: the molecule itself; test: SEC

Binder	binding result (His-Ubc13)	stoichiometry N (SEC)
His-Mms2 (natural protein) MSKVPRNFRLLEELEKGEKGFGPESCSYGLADSDDITMTKWNGTILGPPHSNHENRIYSLSIDCGPNYPDSPPKVTFISKINLPCVNPTTGEVQTDFHTLRDWKRAYTMETLLLDLRKEMATPANKKLRQPKEGETF	binds	–
His-tagged p97 ΔN (domain or fragment) not shown	–	6
